Measurements as given in article doi:10.1101/2021.07.06.451098.

Assays:
[1] = molecular target: VAR2CSA ectodomain (residue 1-2630) of Plasmodium falciparum 3D7 (Plasmodium falciparum 3D7); experiment: SEC
[2] = molecular target: VAR2CSA ectodomain (residue 1-2630) of Plasmodium falciparum 3D7 (Plasmodium falciparum 3D7); experiment: cross-linking

“VAR2CSA ectodomain (residue 1-2630) of Plasmodium falciparum 3D7 (domain or fragment)” showed a stoichiometry N [1] of 2 and a stoichiometry N [2] of 2.
